{
  "source": "patent US9322042B2",
  "about": "“Thermostable cellulases, and mutants thereof, capable of hydrolyzing cellulose in ionic liquid” (The Regents of the University of California, priority 2009, dated 2016)",
  "molecules": {"B1": {"name": "Pho EG: cellulase of Pyrococcus horikoshii strain OT3 (Accession No. NP_143072); SEQ ID NO: 21 (protein, listed as Pyrococcus horikoshii)", "chain": "MEGNTILKIVLICTILAGLFGQVVPVYAENTTYQTPTGIYYEVRGDTIYMINVTSGEETPIHLFGVNWFGFETPNHVVHGLWKRNWEDMLLQIKSLGFNAIRLPFCTESVKPGTQPIGIDYSKNPDLRGLDSLQIMEKIIKKAGDLGIFVLLDYHRIGCTHIEPLWYTEDFSEEDFINTWIEVAKRFGKYWNVIGADLKNEPHSVTSPPAAYTDGTGATWGMGNPATDWNLAAERIGKAILKVAPHWLIFVEGTQFTNPKTDSSYKWGYNAWWGGNLMAVKDYPVNLPRNKLVYSPHVYGPDVYNQPYFGPAKGFPDNLPDIWYHHFGYVKLELGYSVVIGEFGGKYGHGGDPRDVIWQNKLVDWMIENKFCDFFYWSWNPDSGDTGGILQDDWTTIWEDKYNNLKRLMDSCSKSSSSTQSVIRSTTPTKSNTSKKICGPAILIILAVFSLLLRRAPR"}, "B2": {"name": "Tma Cel5A: wild-type cellulase of Thermatoga maritima strain MSB8 (Accession No. NP_229549); SEQ ID NO: 20 (protein, listed as Thermotoga maritima)", "chain": "MGVDPFERNKILGRGINIGNALEAPNEGDWGVVIKDEFFDIIKEAGFSHVRIPIRWSTHAYAFPPYKIMDRFFKRVDEVINGALKRGLAVVINIHHYEELMNDPEEHKERFLALWKQIADRYKDYPETLFFEILNEPHGNLTPEKWNELLEEALKVIRSIDKKHTIIIGTAEWGGISALEKLSVPKWEKNSIVTIHYYNPFEFTHQGAEWVEGSEKWLGRKWGSPDDQKHLIEEFNFIEEWSKKNKRPIYIGEFGAYRKADLESRIKWTSFVVREMEKRRWSWAYWEFCSGFGVYDTLRKTWNKDLLEALIGGDSIE"}},
  "key": {"[1]": {"experiment": "Enzymatic hydrolysis of CMC (DNS / Azo-CMC reducing sugar assay) in the presence of EMIM Acetate ([C2mim][OAc])", "type": "biochemical", "experimental": "(v/v) were incubated at 37° C. (T. viride), 80° C. (TmaEG, Pho EG). The specific activities were calculated as mmoles of reducing sugars formed per min per mg of enzyme. The specific activities are reported as percentages of residual specific activity, taking the specific activity of IL free enzyme a 100% activity. Error bars indicate the standard deviation.\nThe enzymetic activity of the cellulases of Trichoderma viride, Thermatoga maritima, and Pyrococcus horikoshii are measured under varying concentrations of EMIM Acetate. […] The enzymes activities are calculated using both the Azo-CMC assay and the DNS assay. […] At 10% EMIM Acetate the % specific activity of T. viride endoglucanase is near 0%, while at 20% EMIM Acetate the % specific activity of T. maritima endoglucanase is nearly 40%.\nEnzymatic activity is measured on soluble polysaccharide substrates, CMC, using the dinitrosalicylic acid reducing sugar assay. Briefly, CMC (2% w/v) in […] acetate buffer, (100 mM, pH 4.8) is incubated with enzyme at 80° C. for 30 minutes for Tma and 37° C. and 10 minutes for T. viride. The solution is cooled down to 4° C. and 80 μL of DNS solution is added. The reactants are incubated at 95° C. for 5 minutes and cooled down to room temperature before the absorbance is read at 540 nm. The reducing sugar concentration in the sample is calculated from its absorbance using the standard curve of D-glucose. All experiments are run in triplicate.\nThe purified recombinant enzymes are assayed in the presence of [C2mim][OAc] and the specific activity results are compared with the cellulase from T. viride. [C2mim][OAc] was selected as the IL of choice. The assays are performed under optimum pH and temperatures for T. maritima and T. viride enzymes. Optimum pH and temperatures for T. maritima Cel5A is pH 4.8 and 80° C., respectively. Optimum pH and temperatures for T. viride cellulase is pH 4.5 and 37° C., respectively. The Pho EG is assayed at 80° C. where its specific activity is around 10% less than at 95° C. […] In the presence of 5% (v/v) [C2mim][OAc] the enzyme loses 60% of its activity while it is undetectable in the presence of 10% (v/v) [C2mim][OAc]. Both the recombinant hyperthermophilic enzymes behave very differently. Tma Cel5A in the presence of 5% [C2mim][OAc] loses 24% of its specific activity. At 15% IL (v/v), Tma Cel5A retains 50% of its specific activity. The highest residual activities are observed with Pho EG which retains 100% activity in 20% IL (v/v) (FIG. 6).\nEnzymatic activity is measured on soluble polysaccharide substrates, CMC, using the 3,5-dinitrosalicylic acid (DNS) reducing sugar assay. Briefly, 2% CMC (w/v) in […] acetate buffer, (100 mM, pH 4.5 and pH 4.8 for T. viride and Tma, respectively, and 100 mM MES buffer, pH 6.4 for P. hori EG) is incubated at 80° C. for 30 min for Tma Cel5A and Pho enzymes and 37° C. and 10 min for T. viride. The solution is cooled down to 4° C. and […] of DNS solution is added. The reactants are incubated at 95° C. for 5 min and cooled down to room temperature before the absorbance is read at 540 nm. The reducing sugar concentration in the sample is calculated from its absorbance using the standard curve of D-glucose and cellobiose. For hydrolysis reactions in the presence of [C2mim][OAc], control reactions with CMC in the presence of IL but without no enzyme is subtracted from each measurement. The solid substrate (Avicel and corn stover) hydrolysis reactions are conducted at 80° C. for 15 h for the recombinant enzymes and at 37° C. for 8 h in the case of T. viride cellulose at the optimum pH for each enzyme. The reaction products are monitored using an Agilent 1200 HPLC equipped with Varian 380-LC Evaporative Light Scattering Detector. The total reaction volumes are […] and shaken at 900 rpm at temperature controlled shakers. Enzyme loadings are 0.4 mg per g of glucan and each data point is measured in triplicate. […]"}, "[2]": {"experiment": "Melting temperature (Tm) of the enzyme at varying EMIM Acetate concentration", "type": "physicochemical"}},
  "data": [
    {"molecule": "B1", "values": [
      {"measurement": "activity in 2.9% EMIM Acetate compared with 0%", "setting": "[1]", "result": "at least as active in 2.9% EMIM Acetate as in 0% EMIM Acetate"},
      {"measurement": "activity in 2.9% EMIM Acetate compared with 0%", "setting": "[1]; listed as P. horikoshii", "result": "remain unchanged"},
      {"measurement": "% Specific Activity", "setting": "[1]; 20% EMIM Acetate", "result": 100, "unit": "%"},
      {"measurement": "specific activity at 80° C. less than at 95° C.", "setting": "[1]; 80° C. vs 95° C.", "result": "around 10%"}
    ]},
    {"molecule": "B2", "values": [
      {"measurement": "Melting Temp.", "setting": "[2]; 0% EMIM Acetate, listed as T. maritima", "result": 108, "unit": "°C"},
      {"measurement": "Melting Temp.", "setting": "[2]; 0% EMIM Acetate, listed as T. maritima endoglucanase", "result": 109, "unit": "°C"},
      {"measurement": "Melting Temp.", "setting": "[2]; 5% EMIM Acetate", "result": 101, "unit": "°C"},
      {"measurement": "Melting Temp. Decrease", "setting": "[2]; 5% EMIM Acetate vs 0%", "result": 8, "unit": "°C"},
      {"measurement": "Melting Temp.", "setting": "[2]; 10% EMIM Acetate", "result": 98, "unit": "°C"},
      {"measurement": "Melting Temp. Decrease", "setting": "[2]; 10% EMIM Acetate vs 0%", "result": 11, "unit": "°C"},
      {"measurement": "Melting Temp.", "setting": "[2]; 15% EMIM Acetate", "result": 93, "unit": "°C"},
      {"measurement": "Melting Temp. Decrease", "setting": "[2]; 15% EMIM Acetate vs 0%", "result": 16, "unit": "°C"},
      {"measurement": "Melting Temp.", "setting": "[2]; 20% EMIM Acetate", "result": 89, "unit": "°C"},
      {"measurement": "Melting Temp. Decrease", "setting": "[2]; 20% EMIM Acetate vs 0%", "result": 20, "unit": "°C"},
      {"measurement": "Optimum pH", "setting": "[1]", "result": 4.8},
      {"measurement": "Optimum temperature", "setting": "[1]", "result": 80, "unit": "°C"},
      {"measurement": "tolerance to EMIM Acetate compared to T. viride", "setting": "[1]", "result": "more tolerant to EMIM Acetate"},
      {"measurement": "% Specific Activity", "setting": "[1]; 0% EMIM Acetate", "result": 100, "unit": "%"},
      {"measurement": "% Specific Activity (Table 5)", "setting": "[1]; 0% EMIM Acetate", "result": "31 ± 2^ %"},
      {"measurement": "activity in 2.9% EMIM Acetate compared with 0%", "setting": "[1]", "result": "at least as active in 2.9% EMIM Acetate as in 0% EMIM Acetate"},
      {"measurement": "activity in 2.9% EMIM Acetate compared with 0%", "setting": "[1]; listed as T. maritima", "result": "remain unchanged"},
      {"measurement": "loss of specific activity", "setting": "[1]; 5% (v/v) [C2mim][OAc]", "result": 24, "unit": "%"},
      {"measurement": "% Specific Activity", "setting": "[1]; 5% EMIM Acetate", "result": 77, "unit": "%"},
      {"measurement": "% Specific Activity (Table 5)", "setting": "[1]; 5% EMIM Acetate", "result": "24 ± 1^ %"},
      {"measurement": "% Specific Activity", "setting": "[1]; 10% EMIM Acetate", "result": 65, "unit": "%"},
      {"measurement": "% Specific Activity (Table 5)", "setting": "[1]; 10% EMIM Acetate", "result": "20 ± 0.8", "unit": "%"},
      {"measurement": "% Specific Activity", "setting": "[1]; 15% EMIM Acetate", "result": 50, "unit": "%"},
      {"measurement": "% Specific Activity (Table 5)", "setting": "[1]; 15% EMIM Acetate", "result": "15 ± 0.5", "unit": "%"},
      {"measurement": "% Specific Activity (Table 5)", "setting": "[1]; 20% EMIM Acetate", "result": "13 ± 0.9", "unit": "%"},
      {"measurement": "% Specific Activity", "setting": "[1]; 20% EMIM Acetate, listed as T. maritima endoglucanase", "result": 45, "unit": "%"}
    ]}
  ]
}
